Test [1] has as its target VEGFR1 C471R mutant fused to mCherry (human) (UniProt P17948).
For test [2], the target named is wild-type human VEGFR1 fused to mCherry (human) (UniProt P17948).

In test [1], VEGF165 (ligand) gave a diffusion coefficient (D confocal) of VEGFR1 C471R-mCherry on the plasma membrane of CHO cells by FRAP after 100 nM VEGF165, read as receptor dimerization of 0.017 µm^2 s^−1. For the same substance, in test [2], the diffusion coefficient (D confocal) of VEGFR1-mCherry on the plasma membrane of CHO cells by FRAP after 100 nM VEGF165, read as receptor dimerization was 0.018 µm^2 s^−1.

For the origin of these results see PMC10866885.
